Data as given in patent US20220143148A1, “COMPOSITIONS AND METHODS FOR MODULATING CGRP SIGNALING TO REGULATE INTESTINAL INNATE LYMPHOID CELLS” (The Broad Institute, Inc., priority 2019, published 2022).

System: small intestinal immune cells
Assay: Droplet-based scRNA-seq of small intestinal immune cells (LP and PP), OVA vs PBS, clustering and differential expression
Assay type: in vivo, mouse
Conditions: PP
Description: To comprehensively characterize small intestinal immune cells, Applicants generated scRNA-Seq profiles for 58,067 immune cells collected from lamina propria (LP) and Peyer's patch (PP) regions at steady state and after induction of a type 2 inflammatory reaction to ovalbumin (OVA) (Brandt et al., 2003) (FIGS. 1A and 8A). To ensure sufficient representation of rare cells, Applicants combined a normalization strategy—removing by flow sorting either a portion of IgD+ naïve B cells, which are the most abundant cell type in PPs, or all CD19+ and CD3+ T cells (FIG. 8B, Methods)—with profiling of a sufficiently large number of cells number (P>0.99 to recover at least 15 cells from each cluster, Methods) by massively parallel scRNA-seq (Haber et al., 2017) (Methods). Applicants obtained 36,797 and 21,270 high quality cells passing initial filtering (Methods) from PP and LP regions, respectively.
Overall, Applicants annotated 27 cell subsets across the two compartments, spanning T cells, B cells, ILCs, dendritic cells (DCs), myeloid cells and stromal cells, in frequencies ranging from 0.07% to 14%. Briefly, Applicants first partitioned the cells from the PP regions by unsupervised clustering (Methods) into 46 clusters, retained the 97% of cells that were robustly assigned cell identities in each cluster (Methods), assigned the cells from the LP regions to the 46 clusters using a classifier (Methods), and visualized the data with scvis (Ding et al., 2018), a deep generative model-based method (FIGS. 1B and 8C, Methods). Next, Applicants identified genes that were differentially expressed between the cells in each cluster and the remaining cells (Table 1, Methods), as well as between pairs of clusters (Table 2), to elucidate identities of similar cell types/states. Applicants excluded from downstream analysis clusters mostly consisting of contaminants from epithelium, likely doublets, or cells with a small number of Unique Molecular Identifiers (UMIs) (FIGS. 1C and 8D), or lacking distinct markers (Methods). Altogether, Applicants retained 27 clusters spanning 85% of the cells and each associated with distinct marker genes (FIG. 8E, Methods).
To induce allergic reaction to OVA, 6 to 7 weeks old mice were sensitized twice, two weeks apart, with 50 μg of OVA plus 1 mg of aluminum potassium sulfate adjuvant via intraperitoneal injection. Two weeks later, mice were orally administered with 50 mg of OVA on every other day for a total of five times. 1 μg of α-CGRP peptide was administered simultaneously when indicated. Mice were deprived of food for 3-4 hours in cages with wood chip bedding for limiting antigen degradation in the stomach before each intragastric challenge.
Isolation of cells from Peyer's patches (PPs). Peyer's patches (PPs) were carefully dissected from the small intestine under a stereo microscope using a fine scissor, pierced once with a fine forcep. Tissues were digested in freshly made digestion buffer (RPMI-1640 containing 100 μg/ml Liberase™ and 50 μg/ml DNase I at 37° C. on a roto-mixer. After 15 min, tissues were very gently mixed using a 1 ml pipette. The supernatant was collected and added to ice-cold MACS buffer (pH 7.4; PBS plus 2% FCS and 2 mM EDTA). Pre-warmed (37° C.) fresh digestion buffer was added to the remaining tissues. After rotation at 37° C. for 15 min, the mixture was vigorously mixed using a 1 ml pipette for 1 min. Supernatants from the two steps were combined and passed through 70 μm filters and stained for FACS (below).
Isolation of cells from the lamina propria (LP). The small intestines were opened longitudinally and washed in ice-cold PBS. For scRNA-seq, roughly 0.5 cm of fragments from each of the distal, middle and proximal regions without visible PPs were collected. Epithelial cells were dissociated by tissue rotation in pre-warmed (37° C.) PBS containing 10 mM EDTA at 37° C. for 15 min, followed by additional incubation on ice for 15 min. Tissues were then shaken vigorously. […]

B1: OVA (protein, UniProt P01012 2-386, looked up)
Ovalbumin: GSIGAASMEFCFDVFKELKVHHANENIFYCPIAIMSALAMVYLGAKDSTRTQINKVVRFDKLPGFGDSIEAQCGTSVNVHSSLRDILNQITKPNDVYSFSLASRLYAEERYPILPEYLQCVKELYRGGLEPINFQTAADQARELINSWVESQTNGIIRNVLQPSSVDSQTAMVLVNAIVFKGLWEKAFKDEDTQAMPFRVTEQESKPVQMMYQIGLFRVASMASEKMKILELPFASGTMSMLVLLPDEVSGLEQLESIINFEKLTEWTSSNVMEERKIKVYLPRMKMEEKYNLTSVLMAMGITDVFSSSANLSGISSAESLKISQAVHAAHAEINEAGREVVGSAEAGVDAASVSEEFRADHPFLFCIKHIATNAVLFFGRCVSP
Cluster ID 8, OVA vs PBS
  Ptprcap LN (average fold change): 0.276
  Rab35 LN (average fold change): 0.478
  Rac2 LN (average fold change): 0.169
  Rel LN (average fold change): −0.595
  Rgs1 LN (average fold change): 0.795
  Rnf125 LN (average fold change): −0.483
  Rnf157 LN (average fold change): −0.362
  Rora LN (average fold change): −0.455
  Rrad LN (average fold change): −0.602
  Rsrp1 LN (average fold change): 0.318
  Samd9l LN (average fold change): 0.479
  Samsn1 LN (average fold change): −0.280
  Sh2d1a LN (average fold change): 0.388
  Sik1 LN (average fold change): −0.527
  Skil LN (average fold change): −0.410
  Sla LN (average fold change): 0.486
  Slfn2 LN (average fold change): 0.342
  Sp100 LN (average fold change): 0.330
  Taf10 LN (average fold change): −0.372
  Tfam LN (average fold change): −0.555
  Tgif1 LN (average fold change): −0.580
  Tm6sf1 LN (average fold change): 0.360
  Traf1 LN (average fold change): −0.355
  Tsc22d3 LN (average fold change): 0.472
  Tuba4a LN (average fold change): −0.361
  Txndc5 LN (average fold change): 0.592
  Txnip LN (average fold change): 1.190
  Ube2s LN (average fold change): −0.248
  VgIl4 LN (average fold change): −0.452
  Vps37b LN (average fold change): −0.178
  Zc3h12a LN (average fold change): −0.680
  Zfp36l2 LN (average fold change): 0.382
  Zfp512 LN (average fold change): 0.523
Cluster ID 9
  AC125149.3 percentage of expressing cells in OVA-treated group: 0.619
  Actg1 percentage of expressing cells in OVA-treated group: 1
  Apobec1 percentage of expressing cells in OVA-treated group: 0.86
  Basp1 percentage of expressing cells in OVA-treated group: 0.871
  Cdk1 percentage of expressing cells in OVA-treated group: 0.478
  Cks1brt percentage of expressing cells in OVA-treated group: 0.262
  Ddit4 percentage of expressing cells in OVA-treated group: 0.241
  Eif2ak3 percentage of expressing cells in OVA-treated group: 0.384
  Hspa8 percentage of expressing cells in OVA-treated group: 0.995
  Igha percentage of expressing cells in OVA-treated group: 0.566
  Ighg3 percentage of expressing cells in OVA-treated group: 0.211
  Il2 percentage of expressing cells in OVA-treated group: 0.244
  Lnx2 percentage of expressing cells in OVA-treated group: 0.191
  Malat1 percentage of expressing cells in OVA-treated group: 1
  Mcpt1 percentage of expressing cells in OVA-treated group: 0.156
  Narf percentage of expressing cells in OVA-treated group: 0.441
  Nme2 percentage of expressing cells in OVA-treated group: 0.4
  Rsrp1 percentage of expressing cells in OVA-treated group: 0.796
  Tsc22d3 percentage of expressing cells in OVA-treated group: 0.669
  Tubb5 percentage of expressing cells in OVA-treated group: 0.966
  Uba52 percentage of expressing cells in OVA-treated group: 0.996
  Ubb percentage of expressing cells in OVA-treated group: 0.998
  Wdr89 percentage of expressing cells in OVA-treated group: 0.993
  Zfp36l2 percentage of expressing cells in OVA-treated group: 0.758
Cluster ID 9, OVA vs PBS
  AC125149.3 LN (average fold change): 0.342
  Actg1 LN (average fold change): −0.161
  Apobec1 LN (average fold change): 0.201
  Basp1 LN (average fold change): −0.559
  Cdk1 LN (average fold change): −0.396
  Cks1brt LN (average fold change): 1.033
  Ddit4 LN (average fold change): 0.791
  Eif2ak3 LN (average fold change): 0.581
  Hspa8 LN (average fold change): −0.426
  Igha LN (average fold change): 0.227
  Ighg3 LN (average fold change): 1.831
  Il2 LN (average fold change): 0.918
  Lnx2 LN (average fold change): 0.811
  Malat1 LN (average fold change): −0.269
  Mcpt1 LN (average fold change): 2.708
  Narf LN (average fold change): 0.449
  Nme2 LN (average fold change): 0.703
  Rsrp1 LN (average fold change): −0.274
